B1: SEQ ID NO: 814: inducible system polypeptide, probably Table 20 (GID-GAI) (protein)
chain: MIEKKKSFAKGMGVKSTLVSGSKVYMTTFAEGSDARLEKIVEGDSIRSVNEGEAFSAEMADKNAGYKIGNAKFSHPKGYAVVANNPLYTGPVQQDMLGLKETLEKRYFGESADGNDNICIQVIHNILDIEKILAEYITNAAYAVNNISGLDKDIIGFGKFSTVYTYDEFKDPEHHRAAFNNNDKLINAIKAQYDEFDNFLDNPRLGYFGQAFFSKEGRNYIINYGNECYDILALLSGLRHWVVHNNEEESRISRTWLYNLDKNLDNEYISTLNYLYDRITNELTNSFSKNSAANVNYIAETLGINPAEFAEQYFRFSIMKEQKNLGFNITKLREVMLDRKDMSEIRKNHKVFDSIRTKVYTMMDFVIYRYYIEEDAKVAAANKSLPDNEKSLSEKDIFVINLRGSFNDDQKDALYYDEANRIWRKLENIMHNIKEFRGNKTREYKKKDAPRLPRILPAGRDVSAFSKLMYALTMFLDGKEINDLLTTLINKFDNIQSFLKVMPLIGVNSGGSGSGSSGGSGTMKRDHHHHHHQDKKTMMMNEEDDGNGMDELLAVLGYKVRSSEMADVAQKLEQLEVMMSNVQEDDLSQLATETVHYNPAELYTWLDSMLTDLNPKKKRKV
B2: SEQ ID NO: 813: inducible system polypeptide, probably Table 20 (GID-GAI) (protein)
chain: MAASDEVNLIESRTVVPLNTWVLISNFKVAYNILRRPDGTFNRHLAEYLDRKVTANANPVDGVFSFDVLIDRRINLLSRVYRPAYADQEQPPSILDLEKPVDGDIVPVILFFHGGSFAHSSANSAIYDTLCRRLVGLCKCVVVSVNYRRAPENPYPCAYDDGWIALNWVNSRSWLKSKKDSKVHIFLAGDSSGGNIAHNVALRAGESGIDVLGNILLNPMFGGNERTESEKSLDGKYFVTVRDRDWYWKAFLPEGEDREHPACNPFSPRGKSLEGVSFPKSLVVVAGLDLIRDWQLAYAEGLKKAGQEVKLMHLEKATVGFYLLPNNNHFHNVMDEISAFVNAECSGGSGSGSSGGSGTAKFVEEYAFFKDSAKIADELRLIKSFARMGEPIADARRAMYIDAIRILGTNLSYDELKALADTFSLDENGNKLKKGKHGMRNFIINNVISNKRFHYLIRYGDPAHLHEIAKNEAVVKFVLGRIADIQKKQGQNGKNQIDRYYETCIGKDKGKSVSEKVDALTKIITGMNYDQFDKKRSVIEDTGRENAEREKFKKIISLYLTVIYHILKNIVNINARYVIGFHCVERDAQLYKEKGYDINLKKLEEKGFSSVTKLCAGIDETAPDKRKDVEKEMAERAKESIDSLESANPKLYANYIKYSDEKKAEEFTRQINREKAKTALNAYLRNTKWNVIIREDLLRIDNKTCTLFRNKAVHLEVARYVHAYINDIAEVNSYFQLYHYIMQRIIMNERYEKSSGKVSEYFDAVNDEKKYNDRLLKLLCVPFGYCIPRFKNLSIEALFDRNEAAKFDKEKKKVSGNSGSGPKKKRKVPKKKRKV
B3: SEQ ID NO: 805: inducible system polypeptide, probably Table 20 (GID-GAI) (protein)
chain: MLDLASLILIEKKKSFAKGMGVKSTLVSGSKVYMTTFAEGSDARLEKIVEGDSIRSVNEGEAFSAEMADKNAGYKIGNAKFSHPKGYAVVANNPLYTGPVQQDMLGLKETLEKRYFGESADGNDNICIQVIHNILDIEKILAEYITNAAYAVNNISGLDKDIIGFGKFSTVYTYDEFKDPEHHRAAFNNNDKLINAIKAQYDEFDNFLDNPRLGYFGQAFFSKEGRNYIINYGNECYDILALLSGLRHWVVHNNEEESRISRTWLYNLDKNLDNEYISTLNYLYDRITNELTNSFSKNSAANVNYIAETLGINPAEFAEQYFRFSIMKEQKNLGFNITKLREVMLDRKDMSEIRKNHKVFDSIRTKVYTMMDFVIYRYYIEEDAKVAAANKSLPDNEKSLSEKDIFVINLRGSFNDDQKDALYYDEANRIWRKLENIMHNIKEFRGNKTREYKKKDAPRLPRILPAGRDVSAFSKLMYALTMFLDGKEINDLLTTLINKFDNIQSFLKVMPLIGVNAKFVEEYAFFKDSAKIADELRLIKSFARMGEPIADARRAMYIDAIRILGTNLSYDELKALADTFSLDENGNKLKKGKHGMRNFIINNVISNKRFHYLIRYGDPAHLHEIAKNEAVVKFVLGRIADIQKKQGQNGKNQIDRYYETCIGKSGGSGSGSSGGSGTMAASDEVNLIESRTVVPLNTWVLISNFKVAYNILRRPDGTFNRHLAEYLDRKVTANANPVDGVFSFDVLIDRRINLLSRVYRPAYADQEQPPSILDLEKPVDGDIVPVILFFHGGSFAHSSANSAIYDTLCRRLVGLCKCVVVSVNYRRAPENPYPCAYDDGWIALNWVNSRSWLKSKKDSKVHIFLAGDSSGGNIAHNVALRAGESGIDVLGNILLNPMFGGNERTESEKSLDGKYFVTVRDRDWYWKAFLPEGEDREHPACNPFSPRGKSLEGVSFPKSLVVVAGLDLIRDWQLAYAEGLKKAGQEVKLMHLEKATVGFYLLPNNNHFHNVMDEISAFVNAECLDLASLIL
B4: SEQ ID NO: 809: inducible system polypeptide, probably Table 20 (GID-GAI) (protein)
chain: MAASDEVNLIESRTVVPLNTWVLISNFKVAYNILRRPDGTFNRHLAEYLDRKVTANANPVDGVFSFDVLIDRRINLLSRVYRPAYADQEQPPSILDLEKPVDGDIVPVILFFHGGSFAHSSANSAIYDTLCRRLVGLCKCVVVSVNYRRAPENPYPCAYDDGWIALNWVNSRSWLKSKKDSKVHIFLAGDSSGGNIAHNVALRAGESGIDVLGNILLNPMFGGNERTESEKSLDGKYFVTVRDRDWYWKAFLPEGEDREHPACNPFSPRGKSLEGVSFPKSLVVVAGLDLIRDWQLAYAEGLKKAGQEVKLMHLEKATVGFYLLPNNNHFHNVMDEISAFVNAECSGGSGSGSSGGSGTSYDELKALADTFSLDENGNKLKKGKHGMRNFIINNVISNKRFHYLIRYGDPAHLHEIAKNEAVVKFVLGRIADIQKKQGQNGKNQIDRYYETCIGKDKGKSVSEKVDALTKIITGMNYDQFDKKRSVIEDTGRENAEREKFKKIISLYLTVIYHILKNIVNINARYVIGFHCVERDAQLYKEKGYDINLKKLEEKGFSSVTKLCAGIDETAPDKRKDVEKEMAERAKESIDSLESANPKLYANYIKYSDEKKAEEFTRQINREKAKTALNAYLRNTKWNVIIREDLLRIDNKTCTLFRNKAVHLEVARYVHAYINDIAEVNSYFQLYHYIMQRIIMNERYEKSSGKVSEYFDAVNDEKKYNDRLLKLLCVPFGYCIPRFKNLSIEALFDRNEAAKFDKEKKKVSGNSGSGPKKKRKVPKKKRKV
B5: SEQ ID NO: 810: inducible system polypeptide, probably Table 20 (GID-GAI) (protein)
chain: MIEKKKSFAKGMGVKSTLVSGSKVYMTTFAEGSDARLEKIVEGDSIRSVNEGEAFSAEMADKNAGYKIGNAKFSHPKGYAVVANNPLYTGPVQQDMLGLKETLEKRYFGESADGNDNICIQVIHNILDIEKILAEYITNAAYAVNNISGLDKDIIGFGKFSTVYTYDEFKDPEHHRAAFNNNDKLINAIKAQYDEFDNFLDNPRLGYFGQAFFSKEGRNYIINYGNECYDILALLSGLRHWVVHNNEEESRISRTWLYNLDKNLDNEYISTLNYLYDRITNELTNSFSKNSAANVNYIAETLGINPAEFAEQYFRFSIMKEQKNLGFNITKLREVMLDRKDMSEIRKNHKVFDSIRTKVYTMMDFVIYRYYIEEDAKVAAANKSLPDNEKSLSEKDIFVINLRGSFNDDQKDALYYDEANRIWRKLENIMHNIKEFRGNKTREYKKKDAPRLPRILPAGRDVSAFSKLMYALTMFLDGKEINDLLTTLINKFDNIQSFLKVMPLIGVNAKFVEEYAFFKDSAKIADELRLIKSFARMGEPIADARRAMYIDAIRILGTNLSGGSGSGSSGGSGTMKRDHHHHHHQDKKTMMMNEEDDGNGMDELLAVLGYKVRSSEMADVAQKLEQLEVMMSNVQEDDLSQLATETVHYNPAELYTWLDSMLTDLNPKKKRKV
B6: SEQ ID NO: 804: inducible system polypeptide, probably Table 20 (GID-GAI) (protein)
chain: MAPKKKRKVGIHGVPAAKRDHHHHHHQDKKTMMMNEEDDGNGMDELLAVLGYKVRSSEMADVAQKLEQLEVMMSNVQEDDLSQLATETVHYNPAELYTWLDSMLTDLNSGGSGSGSSGGSGTDKGKSVSEKVDALTKIITGMNYDQFDKKRSVIEDTGRENAEREKFKKIISLYLTVIYHILKNIVNINARYVIGFHCVERDAQLYKEKGYDINLKKLEEKGFSSVTKLCAGIDETAPDKRKDVEKEMAERAKESIDSLESANPKLYANYIKYSDEKKAEEFTRQINREKAKTALNAYLRNTKWNVIIREDLLRIDNKTCTLFRNKAVHLEVARYVHAYINDIAEVNSYFQLYHYIMQRIIMNERYEKSSGKVSEYFDAVNDEKKYNDRLLKLLCVPFGYCIPRFKNLSIEALFDRNEAAKFDKEKKKVSGNSGSGPKKKRKV

This assay concerns mCherry expression in HEK293 FT cells. Kind of assay: Inducible split RfxCas13d (GIB, RAP, ABA, Dano, GRZ CID domains; NES/NLS variants) mCherry knockdown, leakiness and inducibility. It is filed as cell-based. The note with it: inducible polypeptide systems of Tables 18-22. An excerpt: FIG. 6A-6C is a series of schematics and graphs showing that split RfxCas13d's reconstituted and functioned to knockdown mCherry expression in HEK293 FT cells FIG. 6A is a schematic showing split sites selected throughout RfxCas13d sequence. FIG. 6B is a bar graph showing mCherry expression under 4 conditions for gibberellin-inducible, rapalog-inducible, and abscisic acid-inducible inducible split Cas13d designs. In FIG. 6B and FIG. 6C, the left-right order of the bars for each split site is the same as the left-right order of the legend for each bar graph.
FIG. 7A-7E is a series of schematics and graphs showing a functional and inducible split Cas13d design. FIG. 7A is a bar graph showing additional split sites selected in RfxCas13d and tested with GIB CID domains. […] In FIG. 7A and FIG. 7C, the left-right order of the bars for each split site is the same as the left-right order of the legend. FIG. 7B is a schematic showing the design to compartmentalize splits. Compartmentalizing moieties facilitates the reduction of leakiness. […] FIG. 7D is a schematic showing the experiment flow for testing reversibility of the inducible split Cas13d's.
FIG. 8A-8B is a series of schematics and graphs showing that split RfxCas13d's reconstituted upon drug-induced dimerization and knocked down mCherry expression in HEK293 FT cells. FIG. 8A is a bar graph showing quantification of system performance. The left-right order of the bars for each split site is the same as the top-down order of the legend. […] System performance in leakiness score (left axis) and induced activity (right axis) by GIB, RAP, ABA, and Dano-inducible split Cas13d designs.
FIG. 10A-10B is a series of schematics and graphs showing performance optimization through separating split Cas13d moieties in different cellular compartments. […] The left-right order of the bars for each bar graph is the same as the top-down order of the legend.
FIG. 11 is a series of schematics and graphs showing the testing of reversed orientation (dark grey dots) of CID domains with respect to split Cas13d pieces against original orientations (light grey dots) designed for GIB, ABA, Dano, and GRZ inducible systems.
As to B1, the “performance in the tested conditions” value is “highest performance”.
In the case of B2, the “performance in the tested conditions” value is listed as “highest performance”.
Next, B3: “highest performance”; B4: “highest performance”; B5: “highest performance”.
With B6 the entry was “highest performance”.
